According to US20220153847A1 (Chugai, published 2022):
Numbering of substitutions follows the chain as printed.

T1: HLA-DQ6.3 on Ba/F3 cells (human, UniProt P01920 33-230, limits assumed)
T1 construct: whole, on cells; also called Ba/F3-HLA-DQ6.3
T1 MHC II alpha: not shown
T1 MHC II beta: not shown

T2: HLA-DR on Ba/F3 cells (human, UniProt P01903 26-216; P79483 30-227, limits assumed)
T2 construct: whole, on cells; also called Ba/F3-HLA-DR
T2 MHC II alpha: not shown
T2 MHC II beta: not shown

T3: HLA-DQ5.1 on Ba/F3 cells (human, limits assumed)
T3 construct: whole, on cells; also called Ba/F3-HLA-DQ5.1
T3 MHC II alpha: not shown
T3 MHC II beta: not shown

T4: HLA-DQ8 on Ba/F3 cells (human, UniProt P01909 24-216; P01920 33-230, limits assumed)
T4 construct: whole, on cells; also called Ba/F3-HLA-DQ8
T4 MHC II alpha: not shown
T4 MHC II beta: not shown

T5: HLA-DQ7.3 on Ba/F3 cells (human, UniProt P01909 24-216; P01920 33-230, limits assumed)
T5 construct: whole, on cells; also called Ba/F3-HLA-DQ7.3
T5 MHC II alpha: not shown
T5 MHC II beta: not shown

T6: HLA-DQ2.2 on Ba/F3 cells (human, UniProt P01909 24-216, limits assumed)
T6 construct: whole, on cells; also called Ba/F3-HLA-DQ2.2
T6 MHC II alpha: not shown
T6 MHC II beta: not shown

B1: DQN0344xx//DQN0385ee (bispecific antibody, human IgG1, kappa)
heavy 1: QSLEESGGGLVKPGGTLTLTCTASGFSFSSSYWMCWVRQAPGKGLEWVACVYGGSDTTYYASWTKGRFTISKGSSTTVALQVTSLTAADTATYFCARDPLNYYYYGELNLWGPGTLVTVSSASTKGPSVFPLAPSSKSTSGGTAALGCLVKDYFPEPVTVSWNSGALTSGVHTFPAVLQSSGLYSLSSVVTVPSSSLGTQTYICNVNHKPSNTKVDKRVEPKSCDKTHTCPPCPAPELRRGPSVFLFPPKPKDTLMISRTPEVTCVVVDVSHEDPEVKFNWYVDGVEVHNAKTKPREEQYNSTYRVVSVLTVLHQDWLNGKEYKCKVSNKALPAPIEKTISKAKGQPREPQVYTLPPSREEMTKNQVSLTCLVKGFYPSDIAVEWESNGQPENNYKTTPPYLDSDGSFFLYSKLTVDKSRWQQGNVFSCSVMHEALHNHYTQESLSLSP
light 1: AVVLTQTASPVSAAVGGTVTIRCQATENIYSGLAWYQQKPGQPPKVLIYYVSTLASGVPSRFKGSGSGTEYTLTISGVQCDDAATYYCQTYHDISNVTFGGGTKVEIKRTVAAPSVFIFPPSDEQLKSGTASVVCLLNNFYPREAKVQWKVDNALQSGNSQESVTEQDSKDCTYSLSSTLTLSKADYEKHKVYACEVTHQGLSSPVTKSFNRGEC
heavy 2: QEQLEESGGDLVKPGASLTLTCTASGFSFYSSYWICWVRQAPGKGLEWIACIDTGSGSIDYASWVNGRFTISKTSSTTVTLQMTSLTVADTATYFCARDIGIDYNFWGPGTLVTVSSASTKGPSVFPLAPSSKSTSGGTAALGCLVKDYFPEPVTVSWNSGALTSGVHTFPAVLQSSGLYSLSSVVTVPSSSLGTQTYICNVNHKPSNTKVDKRVEPKSCDKTHTCPPCPAPELRRGPSVFLFPPKPKDTLMISRTPEVTCVVVDVSHEDPEVKFNWYVDGVEVHNAKTKPREEQYNSTYRVVSVLTVLHQDWLNGKEYKCKVSNKALPAPIEKTISKAKGQPREPQVYTLPPSRKEMTKNQVSLTCLVKGFYPSDIAVEWESNGQPENNYKTTPPYLDSDGSFFLYSKLTVDKSRWQQGNVFSCSVMHEALHNHYTQKSLSLSP
light 2: AFELTQTPSFVEAAVGGTVTIKCQATQSISSYLNWYQQKPGQPPKLLIYYASTLASGVPSRFKGSGSGTEFSLTISGVECADAATYYCHYGISYVSFGGGTKVEIKRTVAAPSVFIFPPSDEQLKSGTASVVCLLNNFYPREAKVQWKVDNALQSGNSQESVTEQDSKDCTYSLSSTLTLSKADYEKHKVYACEVTHQGLSSPVTKSFNRGEC
B2: DQN0385ee//IC17 (bispecific antibody, human IgG1, kappa)
heavy 1: B1 heavy 2 with K356E, K439E
light 1: B1 light 2
heavy 2: QVQLQQSGPQLVRPGASVKISCKASGYSFTSYWMHWVNQRPGQGLEWIGMIDPSYSETRLNQKFKDKATLTVDKSSSTAYMQLSSPTSEDSAVYYCALYGNYFDYWGQGTTLTVSSASTKGPSVFPLAPSSKSTSGGTAALGCLVKDYFPEPVTVSWNSGALTSGVHTFPAVLQSSGLYSLSSVVTVPSSSLGTQTYICNVNHKPSNTKVDKRVEPKSCDKTHTCPPCPAPELRRGPSVFLFPPKPKDTLMISRTPEVTCVVVDVSHEDPEVKFNWYVDGVEVHNAKTKPREEQYNSTYRVVSVLTVLHQDWLNGKEYKCKVSNKALPAPIEKTISKAKGQPREPQVYTLPPSRKEMTKNQVSLTCLVKGFYPSDIAVEWESNGQPENNYKTTPPYLDSDGSFFLYSKLTVDKSRWQQGNVFSCSVMHEALHNHYTQKSLSLSP
light 2: DIQMTQSSSSFSVSLGDRVTITCKASEDIYNRLAWYQQKPGNAPRLLISGATSLETGVPSRFSGSGSGKDYTLSITSLQTEDVATYYCQQYWSTPYTFGGGTKLEVKRTVAAPSVFIFPPSDEQLKSGTASVVCLLNNFYPREAKVQWKVDNALQSGNSQESVTEQDSKDSTYSLSSTLTLSKADYEKHKVYACEVTHQGLSSPVTKSFNRGEC

Columns and labels:
HLA-DP on Ba/F3 cells = target: T7, HLA-DP on Ba/F3 cells (human, UniProt P20036 29-222; P04440 30-225, limits assumed); assay: FACS on Ba/F3-HLA-DP cells, single antibody concentration, goat F(ab')2 anti-human IgG-PE
T7 construct: whole, on cells; also called Ba/F3-HLA-DP

[1] = target: T8, HLA-DQ2.5/33mer gliadin peptide complex on Ba/F3 cells (human); assay: FACS, Ba/F3 cells; IC17=0%, DQN0139bb//IC17=100%;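 also: flow cytometry binding of anti-HLA-DQ antibodies at 5 µg/mL, incubated 30 min at room temperature with Ba/F3 lines presenting HLA-DQ/peptide complexes; antibody tested at 5 microgram/mL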
T8 construct: whole, on cells; also called Ba/F3-HLA-DQ2.5/33mer gliadin
Excerpt: (§1) The binding of anti-HLA-DQ antibodies to Ba/F3-HLA-DQ2.5, Ba/F3-HLA-DQ2.2, Ba/F3-HLA-DQ7.5, Ba/F3-HLA-DQ8, Ba/F3-HLA-DQ5.1, Ba/F3-HLA-DQ6.3, Ba/F3-HLA-DQ7.3, Ba/F3-HLA-DR, Ba/F3-HLA-DP, Ba/F3-HLA-DQ2.5/CLIP, Ba/F3-HLA-DQ2.5/HBV, Ba/F3-HLA-DQ2.5/Salmonella, Ba/F3-HLA-DQ2.5/TPO, Ba/F3-HLA-DQ2.5/M. bovis, Ba/F3-HLA-DQ2.5/alpha 1 gliadin, Ba/F3-HLA-DQ2.5/alpha 2 gliadin, Ba/F3-HLA-DQ2.5/gamma 1 gliadin, Ba/F3-HLA-DQ2.5/gamma 2 gliadin, Ba/F3-HLA-DQ2.5/omega 1 gliadin, Ba/F3-HLA-DQ2.5/omega 2 gliadin, Ba/F3-HLA-DQ2.5/BC hordein, Ba/F3-HLA-DQ2.5/alpha 3 gliadin, Ba/F3-HLA-DQ2.5/alpha 1b gliadin, Ba/F3-HLA-DQ2.5/gamma 4b gliadin, Ba/F3-HLA-DQ2.5/avenin 1, Ba/F3-HLA-DQ2.5/avenin 2, Ba/F3-HLA-DQ2.5/avenin 3, Ba/F3-HLA-DQ2.5/hordein 1, Ba/F3-HLA-DQ2.5/hordein 2, Ba/F3-HLA-DQ2.5/secalin 1, Ba/F3-HLA-DQ2.5/secalin 2, Ba/F3-HLA-DQ2.5/14mer 1, Ba/F3-HLA-DQ2.5/33mer gliadin, Ba/F3-HLA-DQ2.5/26mer gliadin, was tested. 5 microgram/mL of each of the anti-HLA-DQ antibodies was incubated with each cell line for 30 minutes at room temperature and washed with FACS buffer (2% FBS, 2 mM EDTA in PBS).

HLA-DQ6.3 on Ba/F3 cells = target: T1, HLA-DQ6.3 on Ba/F3 cells; assay: FACS on Ba/F3-HLA-DQ6.3 cells, single antibody concentration, goat F(ab')2 anti-human IgG-PE
HLA-DR on Ba/F3 cells = target: T2, HLA-DR on Ba/F3 cells; assay: FACS on Ba/F3-HLA-DR cells, single antibody concentration, goat F(ab')2 anti-human IgG-PE
[2] = target: DQ2.5/gamma 4a gliadin peptide on IHW9023 cells (human); assay: cell-based or functional assay
[3] = target: DQ2.5/alpha 1b gliadin peptide on IHW9023 cells (human); assay: cell-based or functional assay
[4] = target: DQ2.5/omega 2 gliadin peptide on IHW9023 cells (human); assay: cell-based or functional assay
[5] = target: DQ2.5/BC hordein peptide on IHW9023 cells (human); assay: cell-based or functional assay
[6] = target: DQ2.5/alpha 2 gliadin peptide on IHW9023 cells (human); assay: cell-based or functional assay
[7] = target: DQ2.5/gamma 1 gliadin peptide on IHW9023 cells (human); assay: cell-based or functional assay
[8] = target: DQ2.5/alpha 1 gliadin peptide on IHW9023 cells (human); assay: cell-based or functional assay
[9] = target: DQ2.5/omega 1 gliadin peptide on IHW9023 cells (human); assay: cell-based or functional assay
HLA-DQ5.1 on Ba/F3 cells = target: T3, HLA-DQ5.1 on Ba/F3 cells; assay: FACS on Ba/F3-HLA-DQ5.1 cells, single antibody concentration, goat F(ab')2 anti-human IgG-PE
HLA-DQ2.5 on Ba/F3 cells = target: T9, HLA-DQ2.5 on Ba/F3 cells (human, UniProt P01909 24-216, limits assumed); assay: FACS, Ba/F3 cells; IC17=0%, DQN0139bb//IC17=100%;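 also: flow cytometry binding of anti-HLA-DQ antibodies at 5 µg/mL, incubated 30 min at room temperature with Ba/F3 lines presenting HLA-DQ/peptide complexes; antibody tested at 5 microgram/mL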
T9 construct: whole, on cells; also called Ba/F3-HLA-DQ2.5
Excerpt: as §1

HLA-DQ7.5 on Ba/F3 cells = target: T10, HLA-DQ7.5 on Ba/F3 cells (human, UniProt P01909 24-216; P01920 33-230, limits assumed); assay: FACS, Ba/F3 cells; IC17=0%, DQN0139bb//IC17=100%;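 also: flow cytometry binding of anti-HLA-DQ antibodies at 5 µg/mL, incubated 30 min at room temperature with Ba/F3 lines presenting HLA-DQ/peptide complexes; antibody tested at 5 microgram/mL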
T10 construct: whole, on cells; also called Ba/F3-HLA-DQ7.5
Excerpt: as §1

HLA-DQ8 on Ba/F3 cells = target: T4, HLA-DQ8 on Ba/F3 cells; assay: FACS, Ba/F3 cells; IC17=0%, DQN0139bb//IC17=100%;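 also: flow cytometry binding of anti-HLA-DQ antibodies at 5 µg/mL, incubated 30 min at room temperature with Ba/F3 lines presenting HLA-DQ/peptide complexes; antibody tested at 5 microgram/mL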
Excerpt: as §1

HLA-DQ7.3 on Ba/F3 cells = target: T5, HLA-DQ7.3 on Ba/F3 cells; assay: FACS, Ba/F3 cells; IC17=0%, DQN0139bb//IC17=100%
Excerpt: as §1

HLA-DQ2.2 on Ba/F3 cells = target: T6, HLA-DQ2.2 on Ba/F3 cells; assay: FACS, Ba/F3 cells; IC17=0%, DQN0139bb//IC17=100%
Excerpt: as §1

[10] = target: HLA-DQ2.5/33mer gliadin peptide on IHW9088 cells (human); assay: cell-based or functional assay

T7 sequence (P20036 29-222 limits assumed, chain 1 of 4, other chains not shown): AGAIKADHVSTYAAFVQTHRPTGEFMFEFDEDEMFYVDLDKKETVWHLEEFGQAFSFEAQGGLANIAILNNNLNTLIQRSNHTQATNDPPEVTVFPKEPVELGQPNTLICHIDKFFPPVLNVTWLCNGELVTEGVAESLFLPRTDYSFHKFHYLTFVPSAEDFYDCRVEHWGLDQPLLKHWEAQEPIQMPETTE
T7 sequence (P04440 30-225 limits assumed, chain 2 of 4, other chains not shown): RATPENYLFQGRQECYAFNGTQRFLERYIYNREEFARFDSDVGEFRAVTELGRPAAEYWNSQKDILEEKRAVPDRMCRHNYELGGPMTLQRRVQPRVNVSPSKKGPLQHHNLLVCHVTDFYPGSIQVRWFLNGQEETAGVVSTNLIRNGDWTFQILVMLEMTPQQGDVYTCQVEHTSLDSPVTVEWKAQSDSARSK

Row | Binder | binding result (HLA-DP on Ba/F3 cells) | % MFI [1] | binding result (HLA-DQ6.3 on Ba/F3 cells) | binding result (HLA-DR on Ba/F3 cells) | IC50, Jurkat NFAT-Luc T cell activation [2] | IC50, Jurkat NFAT-Luc T cell activation [3] | IC50, Jurkat NFAT-Luc T cell activation [4] | IC50, Jurkat NFAT-Luc T cell activation [5] | IC50, Jurkat NFAT-Luc T cell activation [6] | IC50, Jurkat NFAT-Luc T cell activation [7] | IC50, Jurkat NFAT-Luc T cell activation [8] | IC50, Jurkat NFAT-Luc T cell activation [9] | binding result (HLA-DQ5.1 on Ba/F3 cells) | % MFI (HLA-DQ2.5 on Ba/F3 cells) | % MFI (HLA-DQ7.5 on Ba/F3 cells) | % MFI (HLA-DQ8 on Ba/F3 cells) | % MFI (HLA-DQ7.3 on Ba/F3 cells) | % MFI (HLA-DQ2.2 on Ba/F3 cells) | IC50 (read off the curve) [10]
1 | B1 | no binding (tested: 5 microgram/mL) | 91.3% | no binding (tested: 5 microgram/mL) | no binding (tested: 5 microgram/mL) | 0.892 mg/L | 0.0594 mg/L | 0.00323 mg/L | 0.0331 mg/L | 0.000606 mg/L | 0.0469 mg/L | 0.019 mg/L | 0.0177 mg/L | no binding (tested: 5 microgram/mL) |  |  |  |  |  | 
2 | B2 |  |  |  |  |  |  |  |  |  |  |  |  |  | 0.1% | 0.1% | 0.1% | 0.1% | 0.3% | ~0.06 microgram/mL
